Test results taken from the DeepSol protein solubility set.

test: soluble on expression in E. coli; label from the status in PepcDB or PDB records

Row | Sequence | soluble on expression in E. coli
1 | GAADHVKGDGKLTSKKISVADYNEIKVDGVIDFNYEQSDDPSTVEVTVDQNLHPYVNIEVKDRVLTIAFKGAKVDHFTKFIVKTNSKWLAAAKVSGNANFMVNSPLTGDETVIKANANSLVQLKETVTVGKLDLNVSGSANMVVNHLEADKIECDIDGSGSITIKKGNAKEGDYSIVSSGDIHAFGLAVPQLSCKVTGNGLAEVHATDNLKANVVGKGNIRYKGPTAVQQRIIGKGTVEEVKE | soluble
2 | GAGAYAYKTIKEDQKRYNERVMGLGLSPEEKQRRAIASATEGGSVPQIRAPSHVPFLLIGGGTAAFAAARSIRARDPGARVLIVSEDPELPYMRPPLSKELWFSDDPNVTKTLQFRQWNGKERSIYFQPPSFYVSAQDLPNIENGGVAVLTGKKVVHLDVRGNMVKLNDGSQITFEKCLIATGGTPRSLSAIDRAGAEVKSRTTLFRKIGDFRALEKISREVKSITVIGGGFLGSELACALGRKSQASGIEVIQLFPEKGNMGKILPQYLSNWTMEKVKREGVKVMPNAIVQSVGVSGGRLLIKLKDGRKVETDHIVTAVGLEPNVELAKTGGLEIDSDFGGFRVNAELQARSNIWVAGDAACFYDIKLGRRRVEHHDHAVVSGRLAGENMTGAAKPYWHQSMFWSDLGPDVGYEAIGLVDSSLPTVGVFAKATAQDNPKSATEQSGTGIRSESETESEASEITIPPSAPAVPQVPVEGEDYGKGVIFYLRDKVVVGIVLWNVFNRMPIARKIIKDGEQHEDLNEVAKLFNIHED | soluble
3 | GAMAEEATFTANFKDTDLKSFIETVGANLNKTIIMGPGVQGAVSIRTMTPLNERQYYQLFLNLLEAQGYAVVPMENDVLKVVKSSAAKVEPLPLVGEGSDNYAGDEMVTKVVPVRNVSVRELAPILRQMIDSAGSGNVVNYDPSNVIMLTGRASVVERLTEVIQRVDHAGNRTEEVIPLDNASASEIARVLESLTKNSGENQPATLKSQIVADERTNSVIVSGDPATRDKMRRLIRRLDSE | soluble
4 | GAMAMRIYYIGVFRSGGEKALELSEVKDLSQFGFFERSSVGQFMTFFAETVASRTGAGQRQSIEEGNYIGHVYARSEGICGVLITDKEYPVRPAYTLLNKILDEYLVAHPKEEWADVTETNDALKMKQLDTYISKYQDPSQADA | soluble
5 | GAMGDIDERNIFFELFDRYKLDKFSTWSLQSKKIENDPDFYKIRDDTVRESLFEEWCGE | soluble
6 | GAMGKVGVGKKAEAVATVVAAVDQARVREPREPGLPEDSYAQQTTLEYGYKEH | soluble
7 | GAMSSKNEWRKSAIANTLLYLRLKNIYVSADDFVEEQNVYVLPKNLLKKFIEISDVKIQVAAFIYGMSAKDHPKVKEIKTVVLVPQLGHVGSVQISNIPDIGDLPDTEGLELLGWIHTQTEELKFMAASEVATHSKLFADKKRDCIDISIFSTPGSVSLSAYNLTDEGYQWGEENKDIMNVLSEGFEPTFSTHAQLLLSDRITGNFIIPSGNVWNYTFMGTAFNQEGDYNFKYGIPLEFYNEMHRPVHFLQFSE | soluble
8 | GAMSVASLPECVKNFFPTEQLEFSSSITADEKPVLHEVFQKHSCFSQCGEMIDEVSKKHPELGKRLATVLEGNKKRLDGLSPAAVEYAKKLIHMVTTTLCSLTVGKPIDDADAKRLHQEFQSLSSEDQAALRKNNPDIKF | soluble
9 | GAQVSTQKTGAHESIIHYTNINYYKDAASNSANRQDFTQDPGKFTEPVKDIMVKSLPALN | soluble
10 | GDDNSYSLGDIWIAVATVVPEGNNVYYLRLDDGDKLWPAATNYPNYQPKPNQRALVNFTILADSTQSNLGGFSHYIKVNAIHNILTKSIAKNEGAANDSIYGTDPVSIYNNNMWIGDGYLNIYFETLWGGKTAHFINLIQPDAENDPYTLEFRHNAYDDPQYTIGAGRVAFNLSSLPDTKGETVDLVVNYWTSEGKQAYKLKYNSDKTKMEDTSQGYTNDSISNITDMK | soluble
11 | GDYTTLTFRVSTHIEEAAPTSCPAEHPHTVAQGDYLIVAKSNRMSTGNDELGSILMRAFVNAIGELDRLPSHIILYNTGVLLAVEGTDTAETLAELNKKHGIPIIVCGTCADYYEVKDKLRIGTISNMYRIMQLQVATRHIIYP | not soluble
12 | GGGPFIVVAHSQGSMIAYHVLRQLKKADCDVRLFITIGSPLGIQEAQDVLGKIGSGKPLAVPECVDRWLNVAERLDPVALDSDLGNDYQPNSHGVKIENHAGLMINPEWASNPHSGTGYLSLDIVRQAVRETAGPTFSNPVGRNILMKDLVDNIEDGHREQRHPTLIQLVSDDDDATSLDEVRDRLSNLIKNVL | not soluble
13 | GGGQCYFIPNQSLKPNECQDLKGVSHPLNSVWKTKDCEECTCGQDAISCCNTAAIPTGYDTNKCQKILNKKTCTYTVVEKKDPGKTCDVTGWVL | soluble
14 | GGHTVPKPFNLSKGKRKHEEASDYVSTAEQVIAFYKRTPARYHLRSRQREMEGPSPVKMIKTKLTNPKTPLLQTKGRHRPV | soluble
15 | GGNLEEMNIDPDNATQTHPKLLLTQICMNAFKRGTDGMYATKKVIQADGESADQYYKWTRGSFGYYDNLRNVQKMGEEAERVNAPVYTALTKFFRAYYFYELTLRFGDIPYSQALKGEKEEIYTPEYDAQEDVFAGILQELREADEILANDASVIDGDIIYNGNSTQWRKLINSFRLKVLMTLSNHTTVGNINIASEFKNIATNSPLMNSLADNGQLVYLDQQGNRYPQFNAQWSGYYMDDTFIQRMRERRDPRLFIFSAQTNKGKTEGKPIDDFSSYEGGDPAAPYSDAIIKVSEGTISPINDRFRTDPIVEPTMLMGYAELQQILAEAVVRGWISGNAQTYYEKGIRASFSFYETHAKDYAGYLNENAVAQYLKEPLVDFTQASGTEEQIERIIMQKYLVTFYQGNWDSFYEQLRTGYPDFRRPAGTEIPKRWMYPQGEYDNNGTNVETAITRQFGAGNDKINQATWWQKKS | soluble
16 | GGSGSDIEAYFERIGYKNSRNKLDLETLTDILEHQIRAVPFENLNMHCGQAMELGLEAIFDHIVRRNRGGWCLQVNQLLYWALTTIGFQTTMLGGYFYIPPVNKYSTGMVHLLLQVTIDGRNYIVDAGSGSSSQMWQPLELISGKDQPQVPCIFCLTEERGIWYLDQIRREQYITNKEFLNSHLLPKKKHQKIYLFTLEPRTIEDFESMNTYLQTSPTSSFITTSFCSLQTPEGVYCLVGFILTYRKFNYKDNTDLVEFKTLTEEEVEEVLKNIFKISLGRNLVPKPGDGSLTI | soluble
17 | GHELSAIIPRSSWLAQKPMDEPLPLQLPVKYVVILHTATESSEKRAINVRLIRDMQSFHIESRGWNDIAYNFLVGCDGNIYEGRGWKTVGAHTLGYNRISLGISFIGCFMKELPTADALNMCRNLLARGVEDGHISTDYRLICHCQCNSTESPGRRLYEEIQTWPHFYNIEEEEQ | soluble
18 | GHHHHHHAIAENLYFQSTGNAGEWCLMESDPGVFTELIKGFGCRGAQVEEIWSLEPENFEKLKPVHGLIFLFKWQPGEEPAGSVVQDSRLDTIFFAKQVINNACATQAIVSVLLNCTHQDVHLGETLSEFKEFSQSFDAAMKGLALSNSDVIRQVHNSFARQQMFEFDTKTSAKEEDAFHFVSYVPVNGRLYELDGLREGPIDLGACNQDDWISAVRPVIEKRIQKYSEGEIRFNLMAIVSDRKMIYEQKIAELQRQLAEEPMDTDQGNSMLSAIQSEVAKNQMLIEEEVQKLKRYKIENIRRKHNYLPFIMELLKTLAEHQQLIPLVEKAKEKQNAKKAQETK | not soluble
19 | GHMAGNPPDPNAASTGTNPSPQAAGDISPEMMPETANIKLGYIPIVEAAPLIIAQEKGFFAKYGMTGVEVSKQANWASARDNVTIGSQGGGIDGGQWQMPMPHLITEGIITNGNKVPMYVLAQLITQGNGIAVAPMHEGKGVNLDITKAADYIKGFNKTNGRKFKAAHTFPNVNQDFWIRYWFAAGGVDPDTDIDLLAVPPAETVQGMRNGTMDAFSTGDPWPYRIVTENIGYMAGLTAQIWPYHPEEYLAIRADWVDKNPKATKALLKGIMEAQQWIDDPKNRPEVVQIVSGRNYFNVPTTILESPFKGQYTMGDGQPAIDDFQKGPLYWKDGIGNVSYPYKSHDLWFLTESIRWGFHKNAIPDLDTAQKIIDKVNREDLWREAATEAGFTADIPSSTSRGVETFFDGITFDPANPSAYLQSLAIKKV | soluble
